Test results taken from patent US20220127316A1 (University of Pennsylvania, published 2022).

Target: T1, recombinant human GFRα-like His-tag receptor (R&D 9647-GR-050) (human, UniProt Q6UXV0 19-351)
T1 construct: Bought protein, captured on a Pierce nickel coated plate at 0.1 µg/mL; also called GFRAL receptor; GDNF family receptor alpha-like; not shown: His-tag
T1 sequence (looked up): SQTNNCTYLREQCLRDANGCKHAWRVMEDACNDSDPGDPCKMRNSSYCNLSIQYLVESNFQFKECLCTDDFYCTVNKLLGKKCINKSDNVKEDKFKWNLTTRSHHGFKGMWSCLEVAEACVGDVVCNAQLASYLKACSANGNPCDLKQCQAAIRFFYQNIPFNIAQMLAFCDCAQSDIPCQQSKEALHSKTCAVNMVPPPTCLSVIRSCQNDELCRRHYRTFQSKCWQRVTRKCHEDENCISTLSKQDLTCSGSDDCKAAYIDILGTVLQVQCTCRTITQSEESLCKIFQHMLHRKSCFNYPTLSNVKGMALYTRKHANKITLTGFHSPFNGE
Test: ELISA; His-tagged GFRAL captured on nickel coated plate, GDF15 titrated 100 to 0.005 ng/mL, detected with anti-GDF15 primary antibody
Experimental: To validate binding of the synthesized peptides to the GFRAL receptor, an ELISA assay was developed to determine the binding affinity of the peptides for their receptor. The primary antibody (Abcam ab206414) was diluted to 1 μg/mL. The secondary antibody was diluted by placing 5 μL into 10 mL assay buffer. GDF15 was run at concentrations of 100 ng/mL to 0.005 ng/mL. The recombinant human GFRα-like His-tag receptor (R&D 9647-GR-050) was added to the Pierce™ nickel coated plate (ThermoFisher Scientific 15442) at 0.1 μg/mL in a total volume of 100 μL.

B1: Recombinant human GDF-15 (rhGDF15) (ligand, UniProt Q99988 197-308, looked up)
chain: ARNGDHCPLGPGRCCRLHTVRASLEDLGWADWVLSPREVQVTMCIGACPSQFRAANMHAQIKTSLHRLKPDTVPAPCCVPASYNPMVLIQKTDTGVSLQTYDDLLAKDCHCI
notes: Run at 100 ng/mL to 0.005 ng/mL in the ELISA and detected with primary antibody Abcam ab206414; also called growth and differentiation factor 15; MIC-1
Q: With B1 as the binder, how does the Kd read?
A: 1.03 ng/mL
